Data published in the Immune Epitope Database (IEDB).

Tests used:
Experiment in all cases: IEDB peptide-MHC binding, purified MHC/competitive/radioactivity; filed as Kd, often an IC50 or EC50 that approximates it; ≥ and ≤ were set here for values at or beyond the usual limits of such assays
HLA-A*02:02 = target: HLA-A*02:02
HLA-A*02:06 = target: HLA-A*02:06
HLA-A*02:03 = target: HLA-A*02:03
[1] = source organism: SARS coronavirus Tor2
[2] = source organism: Vaccinia virus WR
[3] = source organism: Mammarenavirus machupoense
[4] = source organism: Lymphocytic choriomeningitis virus (strain Armstrong)

Sequence | Kd (HLA-A*02:02; [2]) [nM] | Kd (HLA-A*02:06; [2]) [nM] | Kd (HLA-A*02:03; [2]) [nM] | further results
NLLLLFVTI |  |  |  | Kd (HLA-A*02:02; [1]): 436 nM; Kd (HLA-A*02:06; [1]): 456 nM; Kd (HLA-A*02:03; [1]): 1600 nM
MAAAKTPVIV | 6010 | 3630 | 156 | 
SLVKESMASL | 994 | 1430 | 7.78 | 
IAMWLLLLSI |  |  |  | Kd (HLA-A*02:02; [1]): 85.8 nM; Kd (HLA-A*02:06; [1]): 498 nM; Kd (HLA-A*02:03; [1]): 1900 nM
KIVGLYGNGV |  |  |  | Kd (HLA-A*02:06; source organism: Dengue virus 1 Brazil/97-11/1997): 14.7 nM
LMAIDLGEL |  |  |  | Kd (HLA-A*02:03; source organism: Dengue virus 2 Jamaica/1409/1983): 15.3 nM
FTFGDTALYV | 24.3 | 3.51 | 48.1 | 
YASLTTIGT | 409 | 161 | 144 | 
PVDLVKSSFV | 6610 | ≥ 26600 | 9640 | 
FLLPLTSLVI | 11.5 | 2.5 | 5.07 | 
GLLDSIKMI | 80 | 43.4 | 14.1 | 
FLAFLLFLV |  |  |  | Kd (HLA-A*02:02; [1]): 1.81 nM; Kd (HLA-A*02:06; [1]): 9 nM; Kd (HLA-A*02:03; [1]): 58.3 nM
WIKNLETYT | 18300 | 8210 | 637 | 
KLPTWLGAA | 499 | 9.42 | 8.02 | 
RLSAAIGKA |  |  |  | Kd (HLA-A*02:03; source organism: Dengue virus 1 Singapore/S275/1990): 70.7 nM
KSYFTNAAL |  |  |  | Kd (HLA-A*02:02; [3]): 593 nM; Kd (HLA-A*02:06; [3]): 12000 nM; Kd (HLA-A*02:03; [3]): 7180 nM
QLMCQPILL |  |  |  | Kd (HLA-A*02:02; [1]): 2.99 nM; Kd (HLA-A*02:06; [1]): 76.9 nM; Kd (HLA-A*02:03; [1]): 11.9 nM
ITLDILTEI |  |  |  | Kd (HLA-A*02:06; source organism: Dengue virus 4 Philippines/H241/1956): 8.88 nM
NVISKIYTLI | 0.985 | 196 | 32.7 | 
YVIRHVDGKI | 621 | 522 | 114 | 
KLFKRERDA | 2390 | 14900 | 985 | 
PVVYHDDDNT | 9140 | 1350 | ≥ 26800 | 
IMLIIFWFSL |  |  |  | Kd (HLA-A*02:02; [1]): 1540 nM; Kd (HLA-A*02:06; [1]): 16800 nM; Kd (HLA-A*02:03; [1]): 14900 nM
NIGCAVNTPV | 126 | 176 | 30.3 | 
VLAWLYAAV |  |  |  | Kd (HLA-A*02:02; [1]): 0.0967 nM; Kd (HLA-A*02:06; [1]): 8.79 nM; Kd (HLA-A*02:03; [1]): 0.311 nM
SCDDVVFGI |  |  |  | Kd (HLA-A*02:02; [4]): 2150 nM; Kd (HLA-A*02:06; [4]): 14500 nM; Kd (HLA-A*02:03; [4]): ≥ 50400 nM
STYPGNTFV | 10.8 | 0.464 | 0.192 | 
WIKDIMTST | 193 | 136 | 11.5 | 
